Assays:
Assay in all cases: FACS on Claudin-expressing cells
[1] = biological target: T1, wild-type human Claudin 4 protein (human, UniProt O14493 1-209)
T1 construct: Expressed on cells by retrovirus; Wording leaves open whether the entry is the protein or the DNA; also called hCLDN4
T1 sequence: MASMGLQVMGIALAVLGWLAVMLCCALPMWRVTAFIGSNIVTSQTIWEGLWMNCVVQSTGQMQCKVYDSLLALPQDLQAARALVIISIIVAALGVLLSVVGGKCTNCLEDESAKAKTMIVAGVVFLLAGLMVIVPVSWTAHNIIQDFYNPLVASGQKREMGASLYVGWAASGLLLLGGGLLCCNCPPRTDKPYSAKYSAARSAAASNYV
Description: (§1) The cells were washed three times with 0.2% BSA-TBS, and then mixed with 100 μL of a secondary antibody solution (FITC conjugated goat anti-mouse IgG+IgM in 1% BSA-PBS (1:400)), followed by a reaction at 4° C. for 1 hour. The cells were washed with 0.2% BSA-TBS, and FACS analysis (FACS caliber, BD Bioscience) was performed.

[2] = biological target: T2, wild-type human Claudin 2 protein (human, UniProt P57739 1-230)
T2 construct: Expressed on cells by retrovirus; Wording leaves open whether the entry is the protein or the DNA; also called hCLDN2
T2 sequence: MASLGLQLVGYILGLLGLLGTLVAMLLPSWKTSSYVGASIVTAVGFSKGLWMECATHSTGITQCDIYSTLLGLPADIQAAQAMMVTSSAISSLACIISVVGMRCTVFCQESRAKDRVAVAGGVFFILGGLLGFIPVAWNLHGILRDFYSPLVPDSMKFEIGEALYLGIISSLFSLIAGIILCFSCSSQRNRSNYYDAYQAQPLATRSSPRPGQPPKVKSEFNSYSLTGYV
Description: as §1

[3] = biological target: T3, wild-type human Claudin 1 protein (human, UniProt O95832 1-211)
T3 construct: Expressed on cells by retrovirus; also called hCLDN1
T3 sequence: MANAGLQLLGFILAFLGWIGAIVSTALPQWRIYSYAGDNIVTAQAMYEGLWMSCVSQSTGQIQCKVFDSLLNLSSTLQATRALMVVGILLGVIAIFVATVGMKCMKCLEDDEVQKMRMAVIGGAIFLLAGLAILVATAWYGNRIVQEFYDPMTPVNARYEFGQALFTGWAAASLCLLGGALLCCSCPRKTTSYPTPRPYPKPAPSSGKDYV
Description: as §1

[4] = biological target: T4, wild-type human Claudin 9 protein (human, UniProt O95484 1-217)
T4 construct: Expressed on cells by retrovirus; Wording leaves open whether the entry is the protein or the DNA; also called hCLDN9
T4 sequence: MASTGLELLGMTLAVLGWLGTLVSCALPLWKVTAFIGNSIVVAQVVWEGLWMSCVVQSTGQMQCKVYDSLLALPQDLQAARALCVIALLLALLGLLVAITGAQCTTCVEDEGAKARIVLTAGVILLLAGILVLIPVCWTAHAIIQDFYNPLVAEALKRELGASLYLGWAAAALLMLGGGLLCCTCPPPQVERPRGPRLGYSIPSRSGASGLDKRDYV
Description: as §1

[5] = biological target: T5, wild-type human Claudin 7 protein (human, UniProt O95471 1-211)
T5 construct: Expressed on cells by retrovirus; Wording leaves open whether the entry is the protein or the DNA; also called hCLDN7
T5 sequence: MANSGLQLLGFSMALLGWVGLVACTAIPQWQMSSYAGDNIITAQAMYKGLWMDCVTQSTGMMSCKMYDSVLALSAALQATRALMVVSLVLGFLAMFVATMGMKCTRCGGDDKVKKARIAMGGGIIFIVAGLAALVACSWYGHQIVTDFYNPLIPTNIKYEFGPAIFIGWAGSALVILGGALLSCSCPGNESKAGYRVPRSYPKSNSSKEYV
Description: as §1

[6] = biological target: T6, wild-type human Claudin 6 protein (human, UniProt P56747 1-220)
T6 construct: Expressed on cells by retrovirus; Wording leaves open whether the entry is the protein or the DNA; also called hCLDN6
T6 sequence: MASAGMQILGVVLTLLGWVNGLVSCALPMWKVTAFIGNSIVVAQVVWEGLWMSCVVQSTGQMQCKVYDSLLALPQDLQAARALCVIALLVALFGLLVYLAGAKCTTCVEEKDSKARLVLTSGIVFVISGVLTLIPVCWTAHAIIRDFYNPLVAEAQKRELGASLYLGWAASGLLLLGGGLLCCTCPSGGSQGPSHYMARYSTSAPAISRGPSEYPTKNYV
Description: as §1

[7] = biological target: T7, wild-type mouse Claudin 3 protein (mouse, UniProt Q9Z0G9 1-219)
T7 construct: Expressed on cells by retrovirus; Wording leaves open whether the entry is the protein or the DNA; also called mCLDN3
T7 sequence: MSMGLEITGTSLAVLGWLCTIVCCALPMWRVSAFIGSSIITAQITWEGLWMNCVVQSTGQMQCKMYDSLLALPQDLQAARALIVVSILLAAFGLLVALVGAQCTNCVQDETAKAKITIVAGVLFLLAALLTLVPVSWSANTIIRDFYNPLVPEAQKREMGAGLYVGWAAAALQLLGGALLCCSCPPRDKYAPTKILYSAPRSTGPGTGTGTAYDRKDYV
Description: as §1

[8] = biological target: T8, wild-type mouse Claudin 4 protein (mouse, UniProt O35054 1-210)
T8 construct: Expressed on cells by retrovirus; Wording leaves open whether the entry is the protein or the DNA; also called mCLDN4
T8 sequence: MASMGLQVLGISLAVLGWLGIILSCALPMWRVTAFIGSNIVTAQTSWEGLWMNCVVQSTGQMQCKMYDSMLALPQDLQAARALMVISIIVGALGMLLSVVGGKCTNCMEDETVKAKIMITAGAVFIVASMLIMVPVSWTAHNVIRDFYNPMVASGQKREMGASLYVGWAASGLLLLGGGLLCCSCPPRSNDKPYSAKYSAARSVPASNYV
Description: as §1

[9] = biological target: T9, wild-type human Claudin 3 protein (human, UniProt O15551 1-220)
T9 construct: Expressed on cells by retrovirus; Wording leaves open whether the entry is the protein or the DNA; also called hCLDN3
T9 sequence: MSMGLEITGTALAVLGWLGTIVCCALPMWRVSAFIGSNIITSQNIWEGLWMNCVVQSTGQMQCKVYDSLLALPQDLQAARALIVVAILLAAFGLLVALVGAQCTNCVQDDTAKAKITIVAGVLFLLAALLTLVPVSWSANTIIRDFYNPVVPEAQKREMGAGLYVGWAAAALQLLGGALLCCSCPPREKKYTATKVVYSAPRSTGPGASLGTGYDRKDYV
Description: as §1

Measured: binding result

B1: antibody 2B1 (antibody, IgG2a, V domains shown)
VH: QVQLQQPGAELVKPGASVKLSCKASGYTFTTFWIHWVKQRPGRGLEWIGRIAPYSGGTTYNEKFKSKATLTVDRPSTTAYMQLISLTSEDSAVYYCARWDFTYGSNLDYWGQGTTLTVSS
VL: DIVMTQSQKFMSTSVGDRVSIPCKASQNVRTAVAWYQQKPGQSPKALIYLASNRHTGVPDRFTGSGSGTDFTLTISNVQSEDLADYFCLGHWDYPYTFGGGTKLEIKR
notes: also called antibody B
no binding (tested: 10 µg/mL): all assays above

B2: antibody 2B12 (antibody, IgG2a, V domains shown)
VH: QVQLQQSGAELARPGASVKLSCKASGYTFTRFGMSWVKQRTGQGLEWIGEIYPGSGDTYYSENFKGKATLTADKSSGTAYMELRSLTSEDSAVYFCARWGIYYGNPYAMDYWGQGTSVTVSS
VL: DIVMTQAAPSVPVTPGESVSISCRSSKSLLHSNGNTYLYWFLQRPGQSPQLLIYRMSNLASGVPDRFSGSGSGTAFTLRISRVEAEDVGVYYCLQHLEYPFTFGSGTKLEIKR
notes: also called antibody A
no binding (tested: 10 µg/mL): all assays above

From patent US20200223915A1 (OSAKA UNIVERSITY, published 2020)
